Measurements reported in the Immune Epitope Database (IEDB).

What was measured:
HLA-A*01:01 = assay: IEDB peptide-MHC binding, purified MHC/direct/fluorescence; filed as Kd, often an IC50 or EC50 that approximates it; ≥ and ≤ were set here for values at or beyond the usual limits of such assays; conditions: source organism: Mammarenavirus juninense
HLA-A*02:01 [1] = assay: as above; conditions: source organism: Mammarenavirus juninense
HLA-A*03:01 = assay: as above; conditions: source organism: Mammarenavirus juninense
HLA-A*31:01 = assay: as above; conditions: source organism: Mammarenavirus juninense
HLA-B*07:02 [2] = assay: as above; conditions: source organism: Mammarenavirus juninense
HLA-B*08:01 = assay: as above; conditions: source organism: Mammarenavirus juninense
HLA-B*15:01 [3] = assay: as above; conditions: source organism: Mammarenavirus juninense
HLA-B*18:01 = assay: as above; conditions: source organism: Mammarenavirus juninense
HLA-B*27:05 = assay: as above; conditions: source organism: Mammarenavirus juninense
HLA-B*40:01 [4] = assay: as above; conditions: source organism: Mammarenavirus juninense
HLA-B*44:02 [5] = assay: as above; conditions: source organism: Mammarenavirus juninense
HLA-B*46:01 = assay: as above; conditions: source organism: Mammarenavirus juninense
HLA-B*48:01 = assay: as above
HLA-B*57:01 = assay: as above
HLA-B*58:01 = assay: as above
HLA-B*40:01 [6] = assay: IEDB peptide-MHC binding, purified MHC/competitive/radioactivity; filed as Kd, often an IC50 or EC50 that approximates it; ≥ and ≤ were set here for values at or beyond the usual limits of such assays
HLA-A*26:01 = assay: IEDB peptide-MHC binding, purified MHC/competitive/fluorescence; filed as Kd, often an IC50 or EC50 that approximates it; ≥ and ≤ were set here for values at or beyond the usual limits of such assays; conditions: source organism: Influenza A virus (A/Waikato/7/2000(H3N2))
HLA-A*23:01 = assay: IEDB peptide-MHC binding, purified MHC/competitive/radioactivity; filed as Kd, often an IC50 or EC50 that approximates it; ≥ and ≤ were set here for values at or beyond the usual limits of such assays; conditions: source organism: Dengue virus 1 Brazil/97-11/1997
HLA-A*24:02 [7] = assay: as above; conditions: source organism: Dengue virus 1 Brazil/97-11/1997
HLA-B*07:02 [8] = assay: as above
HLA-B*35:01 = assay: as above; conditions: source organism: Dengue virus 1 Brazil/97-11/1997
HLA-B*53:01 = assay: as above; conditions: source organism: Dengue virus 1 Brazil/97-11/1997
HLA-B*44:02 [9] = assay: as above
HLA-B*44:03 = assay: as above
HLA-A*02:01 [10] = assay: as above
HLA-A*24:02 [11] = assay: IEDB peptide-MHC binding, purified MHC/competitive/fluorescence; ≥ and ≤ were set here for values at or beyond the usual limits of such assays
HLA-B*15:17 = assay: IEDB peptide-MHC binding, purified MHC/direct/fluorescence; filed as Kd, often an IC50 or EC50 that approximates it; ≥ and ≤ were set here for values at or beyond the usual limits of such assays
HLA-B*51:01 = assay: IEDB peptide-MHC binding, purified MHC/competitive/radioactivity; filed as Kd, often an IC50 or EC50 that approximates it; ≥ and ≤ were set here for values at or beyond the usual limits of such assays; conditions: source organism: Dengue virus 2 16681-PDK53
HLA-A*02:01 [12] = assay: IEDB peptide-MHC binding, purified MHC/competitive/fluorescence; ≥ and ≤ were set here for values at or beyond the usual limits of such assays; conditions: source organism: Zaire ebolavirus
HLA-B*15:01 [13] = assay: IEDB peptide-MHC binding, purified MHC/competitive/fluorescence; filed as Kd, often an IC50 or EC50 that approximates it; ≥ and ≤ were set here for values at or beyond the usual limits of such assays; conditions: source organism: Yersinia pestis Nepal516
[14] = source organism: Mammarenavirus juninense
[15] = source organism: Dengue virus 1 Brazil/97-11/1997
[16] = source organism: Dengue virus 3 Martinique/1243/1999
[17] = source organism: Camelpox virus M-96
[18] = source organism: Listeria monocytogenes serotype 4b str. H7858
[19] = source organism: Dengue virus 2 Jamaica/1409/1983
[20] = source organism: Dengue virus 4 Dominica/814669/1981
[21] = source organism: West Nile virus

With DLKLVDVKL the Kd (HLA-A*01:01) was ≥ 20 µM, the Kd (HLA-A*02:01 [1]) was ≥ 20 µM and the Kd (HLA-A*03:01) was ≥ 20 µM. The Kd (HLA-A*31:01) was ≥ 20 µM, the Kd (HLA-B*07:02 [2]) was ≥ 20 µM and the Kd (HLA-B*08:01) was ≥ 20 µM. For the same sequence, the Kd (HLA-B*15:01 [3]) was ≥ 20 µM, the Kd (HLA-B*18:01) was ≥ 20 µM and the Kd (HLA-B*27:05) was ≥ 20 µM. The Kd (HLA-B*40:01 [4]) was ≥ 20 µM, the Kd (HLA-B*44:02 [5]) was ≥ 20 µM and the Kd (HLA-B*46:01) was ≥ 20 µM. The Kd (HLA-B*48:01; [14]) was ≥ 20 µM, the Kd (HLA-B*57:01; [14]) was ≥ 20 µM and the Kd (HLA-B*58:01; [14]) was ≥ 20 µM.
With FEATARGARR the Kd (HLA-B*40:01 [6]; [15]) was 1.9 µM.
WRTIMAVLF was tested, and the Kd (HLA-B*48:01; source organism: dengue virus type 4) was ≥ 20 µM.
With DTVHDRTPY the Kd (HLA-A*26:01) was 0.0414 µM.
RPMFAVGLLF gave a Kd (HLA-A*23:01) of 0.0339 µM, a Kd (HLA-A*24:02 [7]) of 0.416 µM and a Kd (HLA-B*07:02 [8]; [15]) of 0.0105 µM. It also gave a Kd (HLA-B*35:01) of 0.919 µM and a Kd (HLA-B*53:01) of 0.0935 µM.
ADMGCVINW was tested, and the Kd (HLA-B*44:02 [9]; [16]) was 0.0928 µM and the Kd (HLA-B*44:03; [16]) was 0.11 µM.
With RLGLSRPLL the Kd (HLA-A*02:01 [10]; source organism: Hepatitis B virus subtype ayw) was ≥ 5 µM.
MEVTAKWLWG gave a Kd (HLA-B*44:03; [15]) of 0.128 µM.
With RKHHTKIDS the IC50 (HLA-A*24:02 [11]; source organism: Variola virus) was 27.2 µM.
KSVTKSSSW was tested, and the Kd (HLA-B*15:17; [17]) was ≤ 0.001 µM, the Kd (HLA-B*57:01; [17]) was 0.108 µM and the Kd (HLA-B*58:01; [17]) was 0.0162 µM.
FFVWVIILF showed an IC50 (HLA-A*24:02 [11]; source organism: Sudan ebolavirus) of 1.51 µM.
For KSAYPFDEL, the Kd (HLA-B*15:17; source organism: Listeria monocytogenes) was 0.134 µM, the Kd (HLA-B*57:01; [18]) was ≥ 20 µM and the Kd (HLA-B*58:01; [18]) was 0.046 µM.
KELKCGSGIF gave a Kd (HLA-B*44:02 [9]; [19]) of 0.0336 µM.
For LTLTNTSII, the Kd (HLA-A*02:01 [10]; source organism: Lassa virus Josiah) was 6.25 µM.
SPIIDKKGKV was tested, and the Kd (HLA-B*07:02 [8]; source organism: Dengue virus 2 16681-PDK53) was 0.582 µM and the Kd (HLA-B*51:01) was ≥ 69.6 µM.
With EYLFEVDNL the IC50 (HLA-A*02:01 [12]) was 43.7 µM and the IC50 (HLA-A*24:02 [11]; source organism: Zaire ebolavirus) was 0.402 µM.
Sequence LLMWITQCFL has a Kd (HLA-A*02:01 [10]; source organism: Homo sapiens) of 0.043 µM.
Sequence GIFEDRAPV has a Kd (HLA-A*02:01 [10]; source organism: Human alphaherpesvirus 1 strain 17) of 0.5 µM.
For RAAGLQDCTM, the Kd (HLA-A*02:01 [10]; source organism: Hepatitis C virus (isolate 1)) was ≥ 50 µM.
In the case of TEYKRVMTF, the Kd (HLA-B*15:01 [13]) is reported as 0.767 µM.
PEVANLDII showed a Kd (HLA-B*40:01 [6]; [15]) of 8.59 µM.
EEIDKKDGDL showed a Kd (HLA-B*40:01 [6]; [20]) of 1.89 µM and a Kd (HLA-B*44:03; [20]) of 0.421 µM.
Work on RVLEMVEDW yielded a Kd (HLA-B*15:17; [21]) of 0.0432 µM and a Kd (HLA-B*57:01; [21]) of 0.0879 µM.
In the case of AIHNVVHAI, the Kd (HLA-A*02:01 [10]; source organism: Triticum aestivum) is reported as 0.166 µM.
For QYVDDANLE, the IC50 (HLA-A*24:02 [11]; source organism: Vaccinia virus) was ≥ 1330 µM.
GEFGKAKGS showed a Kd (HLA-B*44:03; [19]) of 4.16 µM.
For ELSGYCSNI, the Kd (HLA-A*02:01 [10]; source organism: Lassa virus GA391) was 12.5 µM.
SGASTSQETW showed a Kd (HLA-B*44:02 [9]; [15]) of 10.9 µM.
With VEITALILGA the Kd (HLA-B*40:01 [6]; source organism: Dengue virus 4 Philippines/H241/1956) was 0.842 µM.
